The test system of one test is GSK3β and CK1. Put plainly: Phosphorylation of GST-fusion proteins by GSK3β and CK1. The class given is biochemical. The note with it: data not shown.
Test [1] concerns the target catalytic domain of mouse GSK3β (residues 27–393) (mouse) (UniProt Q9WV60).
The target in test [2] is GSK3β catalytic domain, 27-393 (UniProt Q9WV60). Put plainly: inhibition of GSK3β kinase activity, band shift. Particulars: reference: non-phosphorylated peptide …; sites S1490.
In a further test the test system is GSK3β. Particulars: toward full-length β-catenin; cited from earlier work. As for the experimental part:
We next sought to determine if the phosphorylated LRP6 motifs are capable of inhibiting GSK3β in the Axin complex. An in vitro kinase assay with Axin-bound GSK3β was performed by adding the purified GSK3β binding domain (GBD) of Axin to the reaction mixture.

The target of test [3] is T1, catalytic domain of mouse GSK3β (residues 27–393) (mouse, UniProt Q9WV60 27-393).
T1 construct: GSK3β (glycogen synthase kinase 3 beta), mouse, catalytic domain, residues 27-393; also called recombinant GSK3β catalytic domain; source: recombinant, expressed and purified as previously described [32]
Put plainly: steady-state kinetics of enzyme inhibition (GSK3β kinase assay, band shift on SDS-PAGE); apparent Ki; 50 mM Tris pH 8.0, 10 mM MgCl2, 10 mM 2-mercaptoethanol, 1 mM ATP, 8 ng GSK3β catalytic domain, 6 µM primed β-catenin N-terminal fragment (1-133), 37°C; peptide 0, 1, 3, 10, 30 µM; (V0/Vi)−1 = [peptide]/Ki. The note with it: both partners purified.

Test [4] has as its target T1, catalytic domain of mouse GSK3β …. As to the kind of experiment: far-Western, overlay or dot blot; 15 µg GST-miniCL on PVDF; membrane incubated with GSK3β (2 µg/ml) and/or His-Axin (12 µg/ml) in TBST containing 1% skim milk. Particulars: both partners purified.

Square brackets hold non-standard residues; d marks the D form. Ends that are not written are not given here. pT = C[C@@H](OP(=O)(O)O)[C@H](N)C(=O)O; pS = N[C@@H](COP(=O)(O)O)C(=O)O

In the case of “GST-PPPSPxS: GST-fused LRP6 PPPSPxS, residues 1485–1497 (LNPPPSPATERSH; also: GST-fused, end not given here)”, the “Phosphorylation by GSK3β and CK1” value with GSK3β and CK1 was “not phosphorylated”.
“GST-fused mouse Axin GBD (GSK3β binding domain, residues 512–530) (domain or fragment)”: in test [1], the inhibition of in vitro GSK3β activity at above 2.5 µM of GST-Axin GBD amounted to 20%.
With “LRP6 (from UniProt O75581) pS1490 peptide NPPPpSPATERSH”, the “binding against the reference” value in test [2] is on record as “gained”.
Take “full-length Axin: full-length Axin scaffold protein”: in the test with GSK3β, the “Effect on GSK3β activity” value is listed as “increases GSK3β activity”.

B1: dually-phosphorylated LRP6 PPPSPxS peptide (NPPPpSPApTERSH) (peptide)
peptide: {biotin (sulfo-NHS-SS-biotin)}-NPPP[pS]PA[pT]ERSH-NH2
notes: LRP6, first PPPSPxS motif; The biotin is joined by a disulfide that can be cut by reduction; the kinase buffer holds 10 mM 2-mercaptoethanol; also called PPP(p)SPx(p)S; dually-phosphorylated peptide; source: synthetic peptide (solid-phase synthesis)
For B1, in test [3], the Ki is 13 µM.

B2: GST-fused LRP6 miniCL (residues 1470–1510 of human LRP6), not phosphorylated (domain or fragment, UniProt O75581 1470-1510, looked up)
chain: SSSSSSTKGTYFPAILNPPPSPATERSHYTMEFGYSSNSPS
modifications: also: GST fusion (GST left off)
notes: LRP6, human, intracellular fragment miniCL, residues 1470-1510 (Ser/Thr rich cluster and first PPPSPxS motif); also called GST-miniCL; LRP6 miniCL region; source: E. coli, purified (Glutathione-agarose, HiTrapQ)
On to B2, for which, in test [4], the binding result is on record as “binds”.

Source of the values: publication PMC2603313, “Direct Inhibition of GSK3β by the Phosphorylated Cytoplasmic Domain of LRP6 in Wnt/β-Catenin Signaling” (PLoS ONE, 2008).
